Test results reported in US20040054158A1.

What was measured:
[1] = target: B7 molecules on WEHI 231 cells (B7-1 and B7-2); experiment: flow cytometry, titered staining of WEHI 231 cells
[2] = target: B7 molecules on WEHI 231 cells (B7-1 and B7-2); experiment: flow cytometry, titered staining of WEHI 231 cells; estimate from detectable concentrations

Sequence of mCTLA4-mIgG2am (P09793 36-161): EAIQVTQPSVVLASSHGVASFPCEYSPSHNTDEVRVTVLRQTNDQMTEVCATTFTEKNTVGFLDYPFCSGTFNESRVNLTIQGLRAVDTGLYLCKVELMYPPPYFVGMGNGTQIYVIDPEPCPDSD

concentration at which staining was clearly detectable [1]: 8 ng/mL | fold greater binding affinity than mICOS-mIgG2am binding to GL50 on WEHI cells [2]: > 100 fold
Substance: mCTLA4-mIgG2am (from UniProt P09793 36-161) (Fc fusion)
